Experimental data taken from PMC5552852, “Structural basis for Ccd1 auto-inhibition in the Wnt pathway through homomerization of the DIX domain” (Scientific Reports, 2017).
Blank lines part the entries; values can stand above or below the molecule they belong to.

Key:
[1] = target: mCcd1 DIX domain L402A (mouse)
[2] = target: mCcd1 DIX domain R400A (mouse)
[3] = target: mCcd1 DIX domain D399A (mouse)
MBP-fused zCcd1 DIX = target: T1, MBP-fused zCcd1 DIX (zebrafish, UniProt Q804T6 356-438); experiment: pull-down; MBP-fused mCcd1, zCcd1 or Dvl1 DIX (0.8 mM) held on amylose resin, Axin DIX or Dvl1 DIX free; pull-down buffer, 277 K (Figures 5f, 5g); details: both partners purified
T1 construct: DIX domain of zebrafish Ccd1, cDNA Gene ID 360137; The uncleaved precursor of m2; also called MBP-fused zCcd1 DIX domain; source: E. coli (plasmid pOPINM), purified (amylose resin)
T1 sequence (looked up): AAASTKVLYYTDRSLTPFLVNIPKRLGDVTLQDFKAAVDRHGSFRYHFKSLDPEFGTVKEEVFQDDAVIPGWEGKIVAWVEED

mCcd1 DIX domain L402A = target: T2, mCcd1 DIX domain L402A; experiment: dynamic light scattering; details: chain shown with the change;; parent: est. 4.4; read off a plot
T2 chain: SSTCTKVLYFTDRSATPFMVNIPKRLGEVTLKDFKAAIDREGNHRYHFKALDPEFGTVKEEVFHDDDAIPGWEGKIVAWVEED

mCcd1 DIX domain W466A = target: T3, mCcd1 DIX domain W466A; experiment: dynamic light scattering; details: chain shown with the change;; parent: est. 4.4; read off a plot
T3 chain: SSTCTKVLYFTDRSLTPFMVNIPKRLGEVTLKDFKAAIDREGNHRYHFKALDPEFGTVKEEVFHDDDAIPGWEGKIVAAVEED

mCcd1 DIX domain F397A = target: T4, mCcd1 DIX domain F397A; experiment: dynamic light scattering; details: chain shown with the change;; parent: est. 4.4; read off a plot
T4 chain: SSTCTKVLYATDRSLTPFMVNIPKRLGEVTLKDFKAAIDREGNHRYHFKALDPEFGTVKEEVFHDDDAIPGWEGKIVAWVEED

[4] = target: the molecule itself; experiment: SEC; gel filtration chromatography of the DIX domains without carrier (Figures 1b and 4e)

TCF-dependent transcription (TOPflash luciferase reporter, HeLa cells transfected with FLAG-tagged mCcd1 BalphaL L402A), compared to the wild type [1]: 1.5 fold
Molecule: mCcd1 DIX domain L402A (domain or fragment)

TCF-dependent transcription (TOPflash luciferase reporter, HeLa cells transfected with FLAG-tagged mCcd1 BalphaL R400A), compared to the wild type [2]: 1.4 fold
Molecule: mCcd1 DIX domain R400A (domain or fragment)

TCF-dependent transcription (TOPflash luciferase reporter, HeLa cells transfected with FLAG-tagged mCcd1 BalphaL D399A), compared to the wild type [3]: 1.3 fold
Molecule: mCcd1 DIX domain D399A (domain or fragment)

fold binding relative to MBP-fused mCcd1 DIX (MBP-fused zCcd1 DIX): 1.53 fold
B1: Axin DIX domain (domain or fragment, UniProt O70239 745-827, looked up)
chain: CDSIVVAYYFCGEPIPYRTLVRGRAVTLGQFKELLTKKGSYRYYFKKVSDEFDCGVVFEEVREDEAILPVFEEKIIGKVEKVD
notes: DIX domain of Axin; source: E. coli, expressed as a fusion construct with GST or MBP, purified

other: DLS peak size (diameter) of homopolymer (mCcd1 DIX domain L402A): 7.3 nm
B2: mouse Coiled-coil-DIX1 (mCcd1) DIX domain L402A (protein)
chain: SSTCTKVLYFTDRSATPFMVNIPKRLGEVTLKDFKAAIDREGNHRYHFKALDPEFGTVKEEVFHDDDAIPGWEGKIVAWVEED

other: DLS peak size (diameter) of homopolymer (mCcd1 DIX domain W466A): 8.2 nm
B3: mouse Coiled-coil-DIX1 (mCcd1) DIX domain W466A (protein)
chain: SSTCTKVLYFTDRSLTPFMVNIPKRLGEVTLKDFKAAIDREGNHRYHFKALDPEFGTVKEEVFHDDDAIPGWEGKIVAAVEED

other: DLS peak size (diameter) of homopolymer (mCcd1 DIX domain F397A): 5.5 nm
B4: mouse Coiled-coil-DIX1 (mCcd1) DIX domain F397A (protein)
chain: SSTCTKVLYATDRSLTPFMVNIPKRLGEVTLKDFKAAIDREGNHRYHFKALDPEFGTVKEEVFHDDDAIPGWEGKIVAWVEED

B5: zebrafish Coiled-coil-DIX1 (zCcd1) DIX domain (domain or fragment, UniProt Q804T6 356-438, looked up)
chain: AAASTKVLYYTDRSLTPFLVNIPKRLGDVTLQDFKAAVDRHGSFRYHFKSLDPEFGTVKEEVFQDDAVIPGWEGKIVAWVEED
notes: DIX domain of zebrafish Coiled-coil-DIX1 (zCcd1), residues 356-438, cDNA Gene ID 360137; also called zCcd DIX domain; Zebrafish CCD1; source: E. coli (plasmid pOPINM), purified (amylose resin, HRV3C cleavage, HiTrap Q)
stoichiometry N [4]: 2
